Source: patent publication US5175251A, “Antimetastatic peptides with laminin activity” (SRI International, priority 1991, dated 1992)

B1: CTAP-III: naturally occurring polypeptide isolated from human platelets that is capable of activating connective tissue cells (protein, UniProt P02775 44-128, looked up)
Connective tissue-activating …: NLAKGKEESLDSDLYAELRCMCIKTTSGIHPKNIQSLEVIGKGTHCNQVEVIATLKDGRKICLDPDAPRIKKIVQKKLAGDESAD
modifications: Connective tissue-activating peptide III

Columns and labels:
Isoelectric point = assay type: physicochemical
Text: The anion exchange resin is usually employed in the form of a packed column. The column is equilibrated using conventional techniques and the solution of the cleaved reaction products is loaded onto the column. […] The peptide is eluted by increasing the ionic strength of the buffered solution, typically from 0 to 0.75M NaCl. The column can be regenerated by washing with solutions of NaOH and nonionic detergents to remove any residual contaminating protein or solubilizing agents and equilibrating the column.
For example, when the laminin B1 peptide is fused to CTAP-III(Leu21), an anion exchange column (for example, either Mono-Q or Q Sepharose from Pharmacia) may be employed to separate the two proteins on the basis of differences in their isoelectric points (LamB1 -40(Ser27) peptide=3.65, CTAP-III=7.8). […] Elution of the peptide may be performed with a linear gradient (0 to 0.5M) of NaCl. Pooled fractions of LamB1 -40, typically greater than 90% pure, may optionally be subjected to further purification using hydrophobic interaction chromatography (HIC), gel filtration chromatography, reverse-phase liquid chromatography or combinations thereof.

[1] = system: B16/F10 cells (murine melanoma); experiment: Cell adhesion assay: tumor cells bound to peptide-coated wells; assay type: cell-based; details: summary of Table 1
Procedure: The cell-adhesion assay measures the binding of tumor cells to laminin immobilized on the surface of a culture dish. The peptides of the invention can be substituted for the immobilized laminin to measure the binding constants of the peptides and compare binding constants of the peptides of the invention with laminin or other known laminin peptides. In this assay, solubilized peptides are incubated on tissue culture well plates and nonspecific cell binding is blocked by the addition of bovine serum albumin (BSA). Tumor cells are added to the wells and nonadherent cells are removed by washing with phosphate-buffered saline (PBS). Attached cells may be trypsinized and counted electronically or the cells may be fixed, stained with chemical agents, such as crystal violet solution and the optical density of the solutions determined using a microtiter plate reader in the range from 590-405 nm. Extrapolation of OD to the number of cells bound may be obtained by comparison of readings to a standard curve obtained by incubating various numbers of cells in tissue culture wells for a time sufficient to allow firm attachment but not permit significant cell division (about 5 h), and washing and staining as above. […]

Molecule | isoelectric point (pI) (Isoelectric point) | Binding of metastatic tumor cells compared with YIGSR or CDPGYIGSR [1]
NH2 -Pro-Cys-Pro-Asp-Gly-Pro-Asp-Ser-Gly-Arg-Gln-Phe-Ala-Arg-Ser-Cys-Tyr -Gln-Asp-Pro-Val-Thr-Leu-Gln-Leu-Ala-Ser-Val-Cys-Asp-Pro-Gly-Tyr-Ile-Gly-Ser-Arg-Cys-Asp-Asp-OH (H-PCPDGPDSGRQFARSCYQDPVTLQLASVCDPGYIGSRCDD-OH; cysteine pairing not given here) [LamB1 -40(Ser27), recombinant 40 amino acid laminin B1 peptide, Cys at position 923 replaced with serine] | 3.65 | binds metastatic tumor cells more effectively
B1 | 7.8 | –
